From patent US12384831 (SHINSHU UNIVERSITY, dated 2025)

Target: recombinant human LOX-1 (61-273aa) (human, UniProt P78380 61-273)
Assay: sandwich ELISA, LOX-1 immobilized, detection by anti-ApoA I antibody
Procedure: The recombinant human LOX-1 (61-273aa) or protein Dectin-1 belonging to the same family with LOX-1 for the contrast reference was immobilized on the ELISA plate at 4° C. overnight. After washing with PBS, it was blocked by HEPES buffer including 3% BSA (10 mM HEPES, 150 mM NaCl, pH7.4). After washing PBS three times, oxidized HDL, HDL, oxidized LDL and LDL were respectively added thereto, and they were incubated. After washing with PBS, chicken anti-ApoA I monoclonal antibody (chicken monoclonal […]) or HRP-labeled anti-ApoA I polyclonal antibody (sheep polyclonal […]) was added thereto. When chicken anti-ApoA I monoclonal antibody was used, chicken anti-ApoA I monoclonal antibody was added thereto and reacted for 1 hour at room temperature and then it was washed with PBS and secondary antibody: HRP-labeled Donkey anti-chicken IgY was added and incubated for 1 hour at room temperature.
After the antibody response, it was washed with PBS for 5 times. And then, TMB solution was added onto the plate and made it react them at room temperature. After stopping the reaction by 2M sulfuric acid, the absorbency at 450 nm was determined by using SpectraMax 340PC384 (Molecular Devices) to detect the oxidized HDL bound. […]

B1: fusion protein of Fv-type anti-LOX-1 antibody (#10-1) and human ApoA I (31-267aa) (other)
chain: EVKLLESGGGLVQPGGSLKLSCAVSGFDFSRYWMSWVRQAPGKGLEWIGEINPDSSTINFTPSLKDKFIVSRDNAKNTLYLQMSKVRSEDTALYYCARNDVLLGAMDYWGQGTSVTVSSGGGGSGGGGSGGGGSDVLMTQTPLSLPVSLGDQASISCRSSQTIVHSNGKTYLEWYLQKPGQSPKLLIYKVSNRFSGVPDRFSGSGSGTDFTLKISRVEAEDLGVYYCFQGSHVPLTFGAGTKLELKGGGGSGGGGSGGGGSPWDRVKDLATVYVDVLKDSGRDYVSQFEGSALGKQLNLKLLDNWDSVTSTFSKLREQLGPVTQEFWDNLEKETEGLRQEMSKDLEEVKAKVQPYLDDFQKKWQEEMELYRQKVEPLRAELQEGARQKLHELQEKLSPLGEEMRDRARAHVDALRTHLAPYSDELRQRLAARLEALKENGGARLAEYHAKATEHLSTLSEKAKPALEDLRQGLLPVLESFKVSFLSALEEYTKKLNTQ
notes: Expressed from the pEF6-V5-His vector in Expi293 cells, secreted and His-purified; also called chimeric protein; artificial recombinant protein
B1: binds.
